Earlier results as cited in paper PMC11277083, “A Natural Bioactive Peptide from Pinctada fucata Pearls Can Be Used as a Potential Inhibitor of the Interaction between SARS-CoV-2 and ACE2 against COVID-19” (International Journal of Molecular Sciences, 2024).

System: SARS-CoV-2 pseudoparticle
Settings: pretreatment; blocking the interaction between ACE2 and the RBD

B1: human defensin 5 (HD5): human defensin 5 (peptide, UniProt Q01523 20-94, looked up)
Defensin alpha 5: ESLQERADEATTQKQSGEDNQDLAISFAGNGLSALRTSGSQARATCYCRTGRCATRESLSGVCEISGRLYRLCCR
modifications: Defensin-5
For B1, the “effect on SARS-CoV-2 pseudoparticle infection” value is listed as “could reduce SARS-CoV-2 pseudoparticle infection”.
